Data on two substances can be found in paper PMC7034192.

One test addresses M1R L131A (UniProt P11229).
The next test deals with M2R L129A (UniProt P08172).
Chain of UniProt P08172 (P08172 whole entry L129A): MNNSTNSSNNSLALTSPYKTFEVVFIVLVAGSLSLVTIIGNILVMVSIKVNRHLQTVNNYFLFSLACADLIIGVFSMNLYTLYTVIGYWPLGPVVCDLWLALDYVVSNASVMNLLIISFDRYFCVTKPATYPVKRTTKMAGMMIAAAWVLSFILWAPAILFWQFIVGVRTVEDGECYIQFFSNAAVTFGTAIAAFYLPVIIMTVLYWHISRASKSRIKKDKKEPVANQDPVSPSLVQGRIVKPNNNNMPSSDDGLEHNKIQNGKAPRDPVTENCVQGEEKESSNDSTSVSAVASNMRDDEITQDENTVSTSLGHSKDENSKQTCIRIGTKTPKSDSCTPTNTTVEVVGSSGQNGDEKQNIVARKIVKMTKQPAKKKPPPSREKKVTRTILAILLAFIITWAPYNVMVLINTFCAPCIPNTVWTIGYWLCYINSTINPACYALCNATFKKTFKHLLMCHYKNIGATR

The substance “G_(11iN) heterotrimer (Gα_(11iN), Gβ1, Gγ2) (from UniProt P63096 1-29; P29992 36-359; P62873 2-340; P59768 1-71) (complex)” had a coupling with G11, percent of wild type (fig. S10) (% of wild type) with M1R L131A of 17.
In turn, “G_(oAiN) heterotrimer (Gα_(oAiN), Gβ1, Gγ2) (from UniProt P09471 1-354; P62873 2-340; P59768 1-71) (complex)” had a coupling to GoA, percent of wild type (fig. S10) (% of wild type) with M2R L129A of 49.
